The values below come from publication PMC7367873, “Dissecting the sequence determinants for dephosphorylation by the catalytic subunits of phosphatases PP1 and PP2A” (Nature Communications, 2020).

Test [1] has as its system GFP-14-3-3β and its binding proteins. The test is described as follows: GFP-14-3-3β co-IP with LC-MS/MS label-free quantification, untreated versus PP1c-treated. The arrangement: species or system human. The note with it: PP1 vs untreated; LFQ intensities, replicates 1-3.
The next test relates to GFP-14-3-3β. In words: GFP-14-3-3β co-IP with LC-MS/MS, untreated GFP-14-3-3β versus GFP control (14-3-3 interactome). Type of test: binding, human. The note with it: untreated vs GFP; LFQ intensities, replicates 1-3.

B1: SH3BP5L (protein, UniProt Q7L8J4 1-393, looked up)
SH3 domain-binding protein …: MAELRQVPGGRETPQGELRPEVVEDEVPRSPVAEEPGGGGSSSSEAKLSPREEEELDPRIQEELEHLNQASEEINQVELQLDEARTTYRRILQESARKLNTQGSHLGSCIEKARPYYEARRLAKEAQQETQKAALRYERAVSMHNAAREMVFVAEQGVMADKNRLDPTWQEMLNHATCKVNEAEEERLRGEREHQRVTRLCQQAEARVQALQKTLRRAIGKSRPYFELKAQFSQILEEHKAKVTELEQQVAQAKTRYSVALRNLEQISEQIHARRRGGLPPHPLGPRRSSPVGAEAGPEDMEDGDSGIEGAEGAGLEEGSSLGPGPAPDTDTLSLLSLRTVASDLQKCDSVEHLRGLSDHVSLDGQELGTRSGGRRGSDGGARGGRHQRSVSL
B1: the “Difference (log2), PP1 vs untreated” value in test [1] is reported as -0.8873 log2. For the same molecule, the “Difference (log2), untreated vs GFP” value in the test on GFP-14-3-3β stood at 3.944 log2.

B2: NOP56 (protein, UniProt O00567 1-594, looked up)
Nucleolar protein 56: MVLLHVLFEHAVGYALLALKEVEEISLLQPQVEESVLNLGKFHSIVRLVAFCPFASSQVALENANAVSEGVVHEDLRLLLETHLPSKKKKVLLGVGDPKIGAAIQEELGYNCQTGGVIAEILRGVRLHFHNLVKGLTDLSACKAQLGLGHSYSRAKVKFNVNRVDNMIIQSISLLDQLDKDINTFSMRVREWYGYHFPELVKIINDNATYCRLAQFIGNRRELNEDKLEKLEELTMDGAKAKAILDASRSSMGMDISAIDLINIESFSSRVVSLSEYRQSLHTYLRSKMSQVAPSLSALIGEAVGARLIAHAGSLTNLAKYPASTVQILGAEKALFRALKTRGNTPKYGLIFHSTFIGRAAAKNKGRISRYLANKCSIASRIDCFSEVPTSVFGEKLREQVEERLSFYETGEIPRKNLDVMKEAMVQAEEAAAEITRKLEKQEKKRLKKEKKRLAALALASSENSSSTPEECEEMSEKPKKKKKQKPQEVPQENGMEDPSISFSKPKKKKSFSKEELMSSDLEETAGSTSIPKRKKSTPKEETVNDPEEAGHRSGSKKKRKFSKEEPVSSGPEEAVGKSSSKKKKKFHKASQED
Regarding B2, in test [1], the “Difference (log2), PP1 vs untreated” value was -0.8589 log2. Moreover, in the test with GFP-14-3-3β, the “Difference (log2), untreated vs GFP” value is 2.987 log2.

B3: YWHAH (protein, UniProt Q04917 2-246, looked up)
14-3-3 protein eta: GDREQLLQRARLAEQAERYDDMASAMKAVTELNEPLSNEDRNLLSVAYKNVVGARRSSWRVISSIEQKTMADGNEKKLEKVKAYREKIEKELETVCNDVLSLLDKFLIKNCNDFQYESKVFYLKMKGDYYRYLAEVASGEKKNSVVEASEAAYKEAFEISKEQMQPTHPIRLGLALNFSVFYYEIQNAPEQACLLAKQAFDDAIAELDTLNEDSYKDSTLIMQLLRDNLTLWTSDQQDEEAGEGN
As for B3, the “Difference (log2), PP1 vs untreated” value in test [1] was -0.8796 log2. Also, in the test on GFP-14-3-3β, the “Difference (log2), untreated vs GFP” value is reported as 7.762 log2.

B4: FLII (protein, UniProt Q13045 1-1269, looked up)
Protein flightless-1 homolog: MEATGVLPFVRGVDLSGNDFKGGYFPENVKAMTSLRWLKLNRTGLCYLPEELAALQKLEHLSVSHNNLTTLHGELSSLPSLRAIVARANSLKNSGVPDDIFKLDDLSVLDLSHNQLTECPRELENAKNMLVLNLSHNSIDTIPNQLFINLTDLLYLDLSENRLESLPPQMRRLVHLQTLVLNGNPLLHAQLRQLPAMTALQTLHLRSTQRTQSNLPTSLEGLSNLADVDLSCNDLTRVPECLYTLPSLRRLNLSSNQITELSLCIDQWVHVETLNLSRNQLTSLPSAICKLSKLKKLYLNSNKLDFDGLPSGIGKLTNLEEFMAANNNLELVPESLCRCPKLRKLVLNKNHLVTLPEAIHFLTEIEVLDVRENPNLVMPPKPADRAAEWYNIDFSLQNQLRLAGASPATVAAAAAAGSGPKDPMARKMRLRRRKDSAQDDQAKQVLKGMSDVAQEKNKKQEESADARAPSGKVRRWDQGLEKPRLDYSEFFTEDVGQLPGLTIWQIENFVPVLVEEAFHGKFYEADCYIVLKTFLDDSGSLNWEIYYWIGGEATLDKKACSAIHAVNLRNYLGAECRTVREEMGDESEEFLQVFDNDISYIEGGTASGFYTVEDTHYVTRMYRVYGKKNIKLEPVPLKGTSLDPRFVFLLDRGLDIYVWRGAQATLSSTTKARLFAEKINKNERKGKAEITLLVQGQELPEFWEALGGEPSEIKKHVPEDFWPPQPKLYKVGLGLGYLELPQINYKLSVEHKQRPKVELMPRMRLLQSLLDTRCVYILDCWSDVFIWLGRKSPRLVRAAALKLGQELCGMLHRPRHATVSRSLEGTEAQVFKAKFKNWDDVLTVDYTRNAEAVLQSPGLSGKVKRDAEKKDQMKADLTALFLPRQPPMSLAEAEQLMEEWNEDLDGMEGFVLEGKKFARLPEEEFGHFYTQDCYVFLCRYWVPVEYEEEEKKEDKEEKAEGKEGEEATAEAEEKQPEEDFQCIVYFWQGREASNMGWLTFTFSLQKKFESLFPGKLEVVRMTQQQENPKFLSHFKRKFIIHRGKRKAVQGAQQPSLYQIRTNGSALCTRCIQINTDSSLLNSEFCFILKVPFESEDNQGIVYAWVGRASDPDEAKLAEDILNTMFDTSYSKQVINEGEEPENFFWVGIGAQKPYDDDAEYMKHTRLFRCSNEKGYFAVTEKCSDFCQDDLADDDIMLLDNGQEVYMWVGTQTSQVEIKLSLKACQVYIQHMRSKEHERPRRLRLVRKGNEQHAFTRCFHAWSAFCKALA
As for B4, the “Difference (log2), PP1 vs untreated” value in test [1] is recorded as -0.8907 log2. Besides, the “Difference (log2), untreated vs GFP” value with GFP-14-3-3β came out at 1.165 log2.

B5: HNRNPA3 (protein, UniProt P51991 1-378, looked up)
Heterogeneous nuclear …: MEVKPPPGRPQPDSGRRRRRRGEEGHDPKEPEQLRKLFIGGLSFETTDDSLREHFEKWGTLTDCVVMRDPQTKRSRGFGFVTYSCVEEVDAAMCARPHKVDGRVVEPKRAVSREDSVKPGAHLTVKKIFVGGIKEDTEEYNLRDYFEKYGKIETIEVMEDRQSGKKRGFAFVTFDDHDTVDKIVVQKYHTINGHNCEVKKALSKQEMQSAGSQRGRGGGSGNFMGRGGNFGGGGGNFGRGGNFGGRGGYGGGGGGSRGSYGGGDGGYNGFGGDGGNYGGGPGYSSRGGYGGGGPGYGNQGGGYGGGGGYDGYNEGGNFGGGNYGGGGNYNDFGNYSGQQQSNYGPMKGGSFGGRSSGSPYGGGYGSGGGSGGYGSRRF
On to B5, for which the “Difference (log2), PP1 vs untreated” value in test [1] is recorded as -0.8983 log2. Moreover, the “Difference (log2), untreated vs GFP” value with GFP-14-3-3β worked out at 1.1202 log2.

B6: DBN1 (protein, UniProt Q16643 2-649, looked up)
Drebrin: AGVSFSGHRLELLAAYEEVIREESAADWALYTYEDGSDDLKLAASGEGGLQELSGHFENQKVMYGFCSVKDSQAALPKYVLINWVGEDVPDARKCACASHVAKVAEFFQGVDVIVNASSVEDIDAGAIGQRLSNGLARLSSPVLHRLRLREDENAEPVGTTYQKTDAAVEMKRINREQFWEQAKKEEELRKEEERKKALDERLRFEQERMEQERQEQEERERRYREREQQIEEHRRKQQTLEAEEAKRRLKEQSIFGDHRDEEEETHMKKSESEVEEAAAIIAQRPDNPREFFKQQERVASASAGSCDVPSPFNHRPGSHLDSHRRMAPTPIPTRSPSDSSTASTPVAEQIERALDEVTSSQPPPLPPPPPPAQETQEPSPILDSEETRAAAPQAWAGPMEEPPQAQAPPRGPGSPAEDLMFMESAEQAVLAAPVEPATADATEIHDAADTIETDTATADTTVANNVPPAATSLIDLWPGNGEGASTLQGEPRAPTPPSGTEVTLAEVPLLDEVAPEPLLPAGEGCATLLNFDELPEPPATFCDPEEVEGESLAAPQTPTLPSALEELEQEQEPEPHLLTNGETTQKEGTQASEGYFSQSQEEEFAQSEELCAKAPPPVFYNKPPEIDITCWDADPVPEEEEGFEGGD
On to B6, for which the “Difference (log2), PP1 vs untreated” value in test [1] was -0.9011 log2. Moreover, the “Difference (log2), untreated vs GFP” value with GFP-14-3-3β is given as -0.06481 log2.

B7: CDC42EP1 (protein, UniProt Q00587 1-391, looked up)
Cdc42 effector protein 1: MPGPQGGRGAATMSLGKLSPVGWVSSSQGKRRLTADMISHPLGDFRHTMHVGRGGDVFGDTSFLSNHGGSSGSTHRSPRSFLAKKLQLVRRVGAPPRRMASPPAPSPAPPAISPIIKNAISLPQLNQAAYDSLVVGKLSFDSSPTSSTDGHSSYGLDSGFCTISRLPRSEKPHDRDRDGSFPSEPGLRRSDSLLSFRLDLDLGPSLLSELLGVMSLPEAPAAETPAPAANPPAPTANPTGPAANPPATTANPPAPAANPSAPAATPTGPAANPPAPAASSTPHGHCPNGVTAGLGPVAEVKSSPVGGGPRGPAGPALGRHWGAGWDGGHHYPEMDARQERVEVLPQARASWESLDEEWRAPQAGSRTPVPSTVQANTFEFADAEEDDEVKV
Regarding B7, in test [1], the “Difference (log2), PP1 vs untreated” value is -0.8522 log2. Also, in the test with GFP-14-3-3β, the “Difference (log2), untreated vs GFP” value worked out at 1.906 log2.
